# Measured values published in the supplement of paper PMC9170038.
# System: MS2 coat protein
# Assay: apparent KD of MS2 coat protein; designed switch direction (-1 OFF switch, 1 ON switch): -1; higher = weaker reporter binding
# Outline: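 Three titration conditions were used: no input, 200 uM small-molecule ligand, and an oligonucleotide input. In each, SNAP-549-labelled MS2 coat protein was raised from 0.7 or 1.5 nM, doubling, to 3 µM over designed RNA switches transcribed on Illumina chips by stalled E. coli RNA polymerase. Curve fits of normalised cluster fluorescence gave values whose per-design median over clusters is the apparent KD.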
# [1] = Eterna round: R95, input ligand: FMN 200 uM
# [2] = Eterna round: R95, input ligand: microRNA oligo, concentration not stated
# [3] = Eterna round: R95, input ligand: none
# [4] = input ligand: microRNA oligo, concentration not stated
Sequence,apparent KD of MS2 coat protein (input ligand: FMN 200 uM),apparent KD of MS2 coat protein (input ligand: none),apparent KD of MS2 coat protein [1],apparent KD of MS2 coat protein [2],apparent KD of MS2 coat protein [3],apparent KD of MS2 coat protein [4]
"CUUUUGUGAGGAUAUUAGUAGUUUAUAAUUGGUGUUAUUGCUGAGAAGGCACAUGAGGAUCACCCAUGUACAAC [JR_Ex4_Sub033] (Eterna round: R97, puzzle: Exclusion 4)",97.9 nM,37 nM,,,,
"AAAAGCCUAGGAUAUACUUGAGGAUCACCCAAGUAGGGUCGCAUGGACCCGUCCUCGUGUAGAAGGAGGAAAAG [Orreteceer] (Eterna round: R97, puzzle: Exclusion 3)",108 nM,46.7 nM,,,,
"UAAUAUAGAGGAUAUACAUGAGGAUCACCCAUGUGAGUCCAUUAUGGGAUGAGAUCGGGUAGAAGGCUACGAAU [Eternabot (L2) Solution 28] (Eterna round: R97, puzzle: Exclusion 3)",143 nM,57.7 nM,,,,
"AAUUAGCAAGCGAGAUCCCACAUGAGGAUCACCCAUGUGCUCGUCUUAUAAGGUACUGUGACAAAAGUCACGGUACC [Mat - Sensor, turn-off var - Eli Mod - D18] (Eterna round: R97, puzzle: Sensor, turn-off variant 1)",17.9 nM,18.1 nM,,,,
"AGAUGUAGAUACCGGUCCUACAUGAGGAUCACCCAUGUAGCUAGACGUGCGGGCGGCGCUCGUCGGACUACCAGUAG [salish99_TOv1_r3_098] (puzzle: Sensor v3, turn-off variant 1)",,,39.4 nM,42.8 nM,59.7 nM,
"GCAGCAAACCCAAUUAAAACCACAUGAGGAUCACCCAUGUCUCAGGAUAUGGUCUGGAUUACAGGCCAGAAGGGAGAAAGCUGC [Eli exng3 - 052] (Eterna round: R96, puzzle: Exclusion NG 3)",16.2 nM,17.7 nM,,,,10.7 nM
"CUCGUGCAGCAAAGCUGUACGAGUACAUGAGGAUCACCCAUGUAGGAUAUGGUACGCAAAGCGUGCCAGAAGGACGUGCGUUAG [Mat - Exclusion NG 3 - Mod of JL - D94] (Eterna round: R96, puzzle: Exclusion NG 3)",92.5 nM,49.7 nM,,,,19.5 nM
"GCGAAAGCAAGCAAGUGAAACAUGAGGAUCACCCAUGUACUCAUUUGCUCGUCUUGUAAGCUAUGCGAAAGCAUAGC [Mat - Sensor v3 - turn-off var 1 - Eli Mod - D51] (puzzle: Sensor v3, turn-off variant 1)",,,10.7 nM,9.67 nM,9.72 nM,
"CGGAUGUAAGGAUAUCGUGCAAGUUUCAAAAGAGGCUUGUGCGAGAAGGUACAUGAGGAUCACCCAUGUAGGUU [Omei Ex4 B6] (Eterna round: R97, puzzle: Exclusion 4)",157 nM,75.8 nM,,,,
"GAAAACGUAGGAUAUUAAUACUUAUACAUGAGGAUCACCCAUGUUUGGUGGGUAAAAGAAUGAGAAGGGCGAUGAA [EX5 #9] (Eterna round: R97, puzzle: Exclusion 5)",392 nM,425 nM,,,,
"GGGCGGCGGACCGUGGCUUUUUGCUCGUCUUGUGCUUCGACAUGAGGAUCACCCAUGUGGUGGUGGUCCGUUGUGGG [Grok-var2-14 mod JAL] (puzzle: Sensor v3, turn-off variant 2)",,,18.2 nM,12.6 nM,14.7 nM,
"GUCAGCUCGUGAGGAUAUACAUGAGGAUCACCCAUGUGAUCAAUAGCAGCUUCGGCUGCAAUAAUGUAGAAGGCACGAGCUGAC [ENG2/8-C] (Eterna round: R96, puzzle: Exclusion NG 2)",60.5 nM,144 nM,,,,76.2 nM
"CCGGUUCAUUAGGAUAUGCAGGUGAACGGUGCCGUAGAAGGAAUGACAUGAGGAUCACCCAUGUAGAGGAAGUG [Eternabot (L2) Solution 82] (Eterna round: R97, puzzle: Exclusion 6)",36.8 nM,55.1 nM,,,,
"UAAUGUGCGAGAGGAUAUCGUGUACAAAGUACACGAGAAGGCUUCACAUGAGGAUCACCCAUGUAUCGAGGUGAAACACCUUGA [Omei Exc(NG)1 Bv3] (Eterna round: R96, puzzle: Exclusion NG 1)",448 nM,212 nM,,,,254 nM
GAGAAACAUGAGGAUCACCCAUGUGAGGAUAUGAAAAAGAAAAGAAAAGAAAGAAGAAUCAGAAGGCACAAAGG [salish99-ex1_r3_078] (puzzle: Exclusion 1),,,45.3 nM,30.8 nM,39.1 nM,
"AGUACCUGAGUACAAUGUAACAUGAGGAUCACCCAUGUAAUUGGGUGAGAACAAGCUCACCGUUCGUCUUAAAUAAA [JL turnoff v1 80] (Eterna round: R96, puzzle: Sensor v2, turn-off variant)",485 nM,501 nM,,,,55.3 nM
"CUUUUGUCAGGAUAUCGUGCAUACAACGAAAGUUCUAUGUGCGAGAAGGGACAUGAGGAUCACCCAUGUUACGG [Omei Ex4 A6] (Eterna round: R97, puzzle: Exclusion 4)",175 nM,677 nM,,,,

Sequence,apparent KD of MS2 coat protein (input ligand: FMN 200 uM),apparent KD of MS2 coat protein (input ligand: none),apparent KD of MS2 coat protein [1],apparent KD of MS2 coat protein [2],apparent KD of MS2 coat protein [3],apparent KD of MS2 coat protein [4]
"ACAGGUGCAGGAUAUACAUGAGGAUCACCCAUGUAGAUCAACCAGCGAUAGCUGGAAUGUAGAAGGGCACCUGU [E3/5-D1] (Eterna round: R97, puzzle: Exclusion 3)",94.4 nM,18.5 nM,,,,
"UUGUUAUGUGUAGGAUAUGCAUAUUAUUAUUAUGCAGAAGGACAUGAGGAUCACCCAUGUAUAUUAUUAUUAUAUAUUAUAUAU [Title] (Eterna round: R96, puzzle: Exclusion NG 1)",,,,,,21.9 nM
"GGUGUUGAAGGAUAUACAUGAGGAUCACCCAUGUACCGCUCGGACAAGAUAUCAUUCAGUAGAAGGUCGGACCG [Eternabot (L2) Solution 11] (Eterna round: R97, puzzle: Exclusion 3)",66.5 nM,150 nM,,,,
"GCAUGUCUUAAGGAUAUGCUAAGGCGUGAGCCAGCAGAAGGUAAGACAUGAGGAUCACCCAUGUUUUCCUAAAA [jl-ex6-4.33 ViennaUCT mod] (Eterna round: R97, puzzle: Exclusion 6)",68.5 nM,18.9 nM,,,,
"AAGAAACAUGAGGAUCACCCAUGUGAGGAUAUGAUAUGCUAAGCGUAAGCUUAGUAUAUCAGAAGGCACAAAGG [Salishxlusion 1 - Jieux - Exclusion 1] (Eterna round: R97, puzzle: Exclusion 1)",319 nM,120 nM,,,,
"CAUGUGCGAAAGGAUAUGGCCCGCGGAUCAGCUCCAGAAGGUUCGACAUGAGGAUCACCCAUGUGAUCUGGUAA [Eternabot (L1) Solution 61] (Eterna round: R97, puzzle: Exclusion 6)",139 nM,369 nM,,,,
"GUCAGCUCGUGAGGAUAUACAUGAGGAUCACCCAUGUGAUCAAUAGCAGCUUCGGCUGCAUUAAUGUAGAAGGUACGAGCUGAC [ENG2/5-C1] (Eterna round: R96, puzzle: Exclusion NG 2)",65.2 nM,700 nM,,,,111 nM
AAAAGUUAAGGAUAUACAGGGAGCCGCGGCGUCUGGCCGCAACAUGAGGAUCACCCAUGUAGAAGGUAGCCAAA [Maatmaso] (puzzle: Exclusion 2),,,61.5 nM,20.6 nM,30.5 nM,
AGAUGUACCUAGGAUAUCCGUCUUAUUGGACUAGGAGAAGGAGGUACAUGAGGAUCACCCAUGUAUGACUCCUG [Veisteer] (puzzle: Exclusion 6),,,,9.08 nM,,
"AGCAUGCGGAAGGAUAUUUGGAGUAGCGACUCGGGAGAAGGUCUGACAUGAGGAUCACCCAUGUGGAGAGACUG [Eternabot (L1) Solution 59] (Eterna round: R97, puzzle: Exclusion 6)",39.2 nM,20.9 nM,,,,
GUGUACUGAGGAUAUACAUGAGGAUCACCCAUGUGAAUAAGAUAGAAUAAGAUAAAGUGUAGAAGGCAGAGUGU [Excluse me!!! 2 - Jieux - Exclusion 3] (puzzle: Exclusion 3),,,,36.9 nM,,
"UAUACAAAAGAUACCUCGUGACAUGAGGAUCACCCAUGUUUUGAGGAUAUCAGACUUCAUGGUCAUGAGAAGGCAGAGCAUGAU [Tireala] (Eterna round: R96, puzzle: Exclusion NG 3)",20.4 nM,13.6 nM,,,,10.1 nM
"AGCGAAUAAGUAGGAUAUGAGAAUAGAUAGAGCUCAGAAGGACUACAUGAGGAUCACCCAUGUAAAGUCUUGAGGCUGCGUGGU [Prohibition 14 - Jieux - Exclusion NG 1] (Eterna round: R96, puzzle: Exclusion NG 1)",10.8 nM,13.7 nM,,,,11.3 nM
"AAUAAGAAGUAAGGAUAUCUGAAAGGAAGUGUAAGAGAAGGUACGGUGACGUCAGAACGACAUGAGGAUCACCCAUGUAAAGAA [PowerStrip EXNG 1.11] (Eterna round: R96, puzzle: Exclusion NG 1)",79 nM,93.9 nM,,,,69.6 nM
"ACAGCAUAGUUAGGAUAUUGCCGACACUGUGUGUUCCUACACAUGAGGAUCACCCAUGUGAAGCGCGAGAAGGAACUAACUGAA [Eternabot solution 8] (Eterna round: R96, puzzle: Exclusion NG 2)",430 nM,348 nM,,,,179 nM
"GCUGGUCAAGGAUAUACAUUCGUGCUUCGGCACGUAAGAUCACAUGAGGAUCACCCAUGUAGAAGGUGACCAGC [E2/5-C1] (Eterna round: R97, puzzle: Exclusion 2)",700 nM,112 nM,,,,
